From US20260266833A1 (AXOIYA, published 2026) come the findings set out here.

Read-outs that look alike come from different tables or passages of the source. Non-standard residues stand in square brackets, D forms with d. No end group written: not given here. *: point of attachment. Biotin = O=C1N[C@H]2[C@H](CS[C@H]2CCCCC(=O)*)N1; Arg(Me) = CNC(=N)NCCC[C@H](N)C(=O)O; Ahx = NCCCCCC(=O)O

B4: H3K27me3 peptide (peptide)
peptide: KQLATKAARKSAPATGGVK
modifications: Kme3 (trimethyl-lysine) at the 10th residue (KQLATKAARKme3SAPATGGVK); N-terminus biotin + aminohexanoic acid linker, or FITC at the N-terminus for fluorescence polarization
notes: Synthetic peptide (GenScript); One entry is used for the biotinylated and the FITC-labelled form

The target in assay [1] is T1, H3K27 peptide (non-methylated) (also: N-terminal biotin + Ahx, or FITC at N-terminus).
T1 construct: also called unmethylated H3K27 peptide
T1 peptide: KQLATKAARKSAPATGGVK
Description: luciferase-fusion assay on immobilized peptide. How it is done:
(§1) For luciferase-based assays, 384-well white plates (PerkinElmer) were coated for 16 h at 4° C. with 4 μg/ml streptavidin (New England Biolabs, N7021S) in TBS pH 8.5 (50 mM Tris-HCl pH 8.5, 150 mM NaCl). Each well was blocked with 60 μl/well of TBS pH 8.5 containing 0.5% BSA (TB buffer) and incubated at 25° C. for 1 h. Plates were washed four times with 90 μl/well of PBS pH 7.4, 0.05% Tween-20 (PT buffer) and incubated with 25 μl/well of biotinylated histone peptides at 5 μg/ml in TB buffer pH 8.5 for 30 min at 25° C. Plates were washed and incubated with Cbx chromodomain-luciferase fusions diluted to 0.1 nM for Cbx. VD or 100 nM for Cbx.wt in TB buffer, 0.05% Tween-20, 1 mM DTT, 5% glycerol (TBT buffer). Plates were incubated for 1 h at 25° C. with gentle shaking, washed six times and luminescence intensity was measured with a Biotek Synergy 5 plate reader (Biotek) using the ONE-Glo™ EX luciferase assay system reagent (Promega). Following background subtraction of the luminescence signal derived from wells coated with streptavidin, the luminescence intensity was normalized to wells with immobilized H3K9me3 peptide.
(§2) To enhance detection sensitivity, each chromodomain was expressed as a fusion to the N-terminus of an engineered firefly luciferase and binding was measured by luminescence intensity.

Assay [2] concerns the target T2, H3K9me2 (Kme2 at peptide residue 9 (histone H3 K9); N-terminal biotin and aminohexanoic acid linker).
T2 construct: also called H3K9Me2 peptide
T2 peptide: ARTKQTARKSTGGKAPR
Briefly: luciferase-fusion assay on immobilized peptide. As for the experimental part: as §1, §2

Assay [3] addresses T3, H4K20me3 (Kme3 at peptide residue 8 (histone H4 K20); N-terminal biotin and aminohexanoic acid linker).
T3 construct: also called H4K20Me3 peptide
Description: luciferase-fusion assay on immobilized peptide. As for the experimental part: as §1, §2

Assay [4] deals with T4, H3K14Ac.
T4 construct: also called H3K14Ac peptide
T4 peptide: {Biotin-Ahx}-TARKSTGGK(Ac)APRKQLAT
Description: luciferase-fusion assay on immobilized peptide. As for the experimental part: as §1, §2

The target of assay [5] is T5, H3R17me1.
T5 construct: also called H3R17me1 peptide
T5 peptide: {Biotin-Ahx}-KSTGGKAP[Arg(Me)]KQLATKAA
Description: luciferase-fusion assay on immobilized peptide. How it is done:
as §1, §2

In assay [6] the target is T6, H3K9me1 (Kme1 at peptide residue 9 (histone H3 K9); N-terminal biotin and aminohexanoic acid linker).
T6 construct: also called H3K9Me1 peptide
T6 peptide: ARTKQTARKSTGGKAPR
Description: luciferase-fusion assay on immobilized peptide. As for the experimental part:
as §1, §2

The target of assay [7] is T7, H3K9Ac (Kac at peptide residue 9 (histone H3 K9); N-terminal biotin and aminohexanoic acid linker).
T7 construct: also called H3K9Ac peptide
T7 peptide: ARTKQTARKSTGGKAPR
Description: luciferase-fusion assay on immobilized peptide. As for the experimental part:
as §1, §2

For assay [8], the target named is T8, H3K9 peptide (non-methylated) (also: N-terminal FITC, or biotin + Ahx).
T8 construct: also called unmethylated H3K9 peptide
T8 peptide: ARTKQTARKSTGGKAPR
Description: luciferase-fusion assay on immobilized peptide. How it is done:
as §1, §2

Assay [9] deals with H4K20 peptide (N-terminus biotin + aminohexanoic acid linker). Briefly: luciferase-fusion assay on immobilized peptide. How it is done: as §1, §2
The target in assay [10] is T9, H3R17.
T9 construct: also called H3R17 peptide (non-modified)
T9 peptide: {Biotin-Ahx}-KSTGGKAPRKQLATKAA
Description: luciferase-fusion assay on immobilized peptide. As for the experimental part: as §1, §2

The target in assay [11] is T10, H3K27me1 (Kme1 at peptide residue 10 (histone H3 K27); N-terminal biotin and aminohexanoic acid linker).
T10 construct: also called H3K27Me1 peptide
T10 peptide: KQLATKAARKSAPATGGVK
Description: luciferase-fusion assay on immobilized peptide. As for the experimental part:
as §1, §2

The target of assay [12] is T11, H3K14.
T11 construct: also called H3K14 peptide (non-modified)
T11 peptide: {Biotin-Ahx}-TARKSTGGKAPRKQLAT
Briefly: luciferase-fusion assay on immobilized peptide. As for the experimental part: as §1, §2

Assay [13] addresses T12, H3K27me2 (Kme2 at peptide residue 10 (histone H3 K27); N-terminal biotin and aminohexanoic acid linker).
T12 construct: also called H3K27Me2 peptide
T12 peptide: KQLATKAARKSAPATGGVK
Description: luciferase-fusion assay on immobilized peptide. How it is done: as §1, §2

Assay [14] concerns the target B4. Description: ITC, peptide titrated into the chromodomain, 25 C. On the technique in general: In ITC the heat of successive injections is recorded.
Description: Dissociation constants were determined using the one-site binding model supplied in MicroCal PEAQ-ITC analysis software (version 1.1.0.1262) with the fitted offset control. Data are the average from three independent experiments ±1 SD.
The target in assay [15] is B4. Description: fluorescence polarization, FITC-peptide 0.5 nM. For orientation: In fluorescence polarisation assays a small probe gives low polarisation when free and higher when bound to something large.
Description: (§3) Fluorescence polarization (FP) assays were performed in a 20 μl volume at a constant histone peptide concentration of 0.5 nM. Binding measurements were performed in FP buffer (25 mM HEPES pH 7.5, 150 mM NaCl, 1 mM DTT, 0.01% TritonX-100) by mixing in a 384-well black plate (Corning) 0.5 nM FITC-labeled histone peptides with serial dilutions of wild-type Cbx chromodomains ranging from 200-0.2 μM. For affinity determination of Cbx7.V1 and all Cbx. VDs, chromodomains were serially diluted from 50 μM to 50 nM. Samples were incubated for 30 min at 25° C. prior to data acquisition. […] Dissociation constants were determined using Prismv.9.3 (GraphPad Software Inc) with a one-site total binding model.
Assay [16] deals with B4. Briefly: fluorescence polarization.
Description: as §3
(§4) FP assays was used to measure the affinities of each wild-type Cbx chromodomain (Cbx.wt) and its Cbx. VD version for the H3K9me3 and H3K27me3 peptides (Table 13).
Assay [17] has as its target Cbx3.wt chromodomain (tags removed) (human, UniProt Q13185 23-81). Briefly: fluorescence polarization.
Description: as §3, §4
For assay [18], the target named is T13, Cbx6.wt chromodomain (tags removed) (human, UniProt O95503 6-69).
T13 construct: also called Cbx6-chromo
T13 sequence: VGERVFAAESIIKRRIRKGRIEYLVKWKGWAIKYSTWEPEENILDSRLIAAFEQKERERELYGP
Description: fluorescence polarization.
Description: as §3, §4

Assay [19] has as its target Cbx5.wt chromodomain (tags removed) (human, UniProt P45973 17-78). Briefly: fluorescence polarization.
Description: as §3, §4
Assay [20] addresses T14, Cbx1.wt chromodomain (tags removed) (human, UniProt P83916 17-79).
T14 construct: also called Cbx1-chromo
Description: fluorescence polarization.
Description: as §3, §4

Assay [21] deals with T15, Cbx7.wt chromodomain (tags removed) (human, UniProt O95931 4-75).
T15 construct: also called Cbx7-chromo
T15 sequence: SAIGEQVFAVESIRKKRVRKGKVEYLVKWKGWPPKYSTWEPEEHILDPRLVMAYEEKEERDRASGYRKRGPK
Briefly: fluorescence polarization, FITC-peptide 0.5 nM.
Description: as §3, §4

Assay [22] concerns the target T16, Cbx2.wt chromodomain (tags removed) (human, UniProt Q14781 8-70).
T16 sequence: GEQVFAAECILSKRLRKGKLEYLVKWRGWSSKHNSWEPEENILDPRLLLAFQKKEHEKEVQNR
Description: fluorescence polarization, FITC-peptide 0.5 nM.
Description: as §3, §4

Assay [23] deals with T15, Cbx7.wt chromodomain (tags removed). Briefly: fluorescence polarization, FITC-peptide 0.5 nM. The source holds these as a separate data set.
Description: as §3
Assay [24] addresses B4. Briefly: luciferase-fusion assay on immobilized peptide. How it is done: as §1, §2

Cbx3.wt chromodomain (tags removed), sequence (Q13185 23-81 limits assumed): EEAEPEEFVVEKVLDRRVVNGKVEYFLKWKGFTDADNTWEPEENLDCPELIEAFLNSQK
Cbx5.wt chromodomain (tags removed), sequence (P45973 17-78 limits assumed): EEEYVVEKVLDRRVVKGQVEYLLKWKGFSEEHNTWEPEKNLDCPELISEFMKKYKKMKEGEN
T14 sequence (P83916 17-79 limits assumed): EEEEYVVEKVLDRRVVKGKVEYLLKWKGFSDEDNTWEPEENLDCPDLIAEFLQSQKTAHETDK

B1: Cbx8.wt chromodomain-luciferase fusion (other)
chain: MSYYHHHHHHGSDYKDDDDKSSGENLYFQGSGGSGERVFAAEALLKRRIRKGRMEYLVKWKGWSQKYSTWEPEENILDARLLAAFEEREREMELYGP
notes: not shown: engineered YY5 firefly luciferase from Photinus pyralis fused to the C-terminus
With B1, the binding result in assay [1], in [2], in assay [3], in assay [4], in [5] and in assay [6] was “no binding (tested: 100 nM)” throughout. The binding result in assay [7], in assay [8], in [9], in assay [10], in assay [11] and in assay [12] was “no binding (tested: 100 nM)” each time. In addition, in assay [13], the binding result is given as “no binding (tested: 100 nM)”.

B2: Cbx7.V1 chromodomain (tags removed) (designed binder)
chain: SAIGDDIFAVESIRKKRVRKGKVEYLVKWEGWPLEYSTWEPEEHILDPRLVMAYEEKEERDRASGYRKRGPK
notes: ITC and FP: His6 and Flag tags removed with TEV protease
Broadly, the Kd is the free concentration of one partner at which half of the binding sites on the other are occupied at equilibrium, for simple one-to-one binding. For the molecule B2, the results for the Kd in assay [14] and in assay [15] were 7.8 µM and 4 µM, respectively.

B3: Cbx6.VD chromodomain (tags removed) (designed binder)
chain: VGDRVFAAESIIKRRIRKGRIEYLVKWEGWAIKYSTWEPEENILDSRLIAAFEQKERERELYGP
Regarding B3, the binding result in [16] is recorded as “no binding”.
Take B4: the binding result in assay [17], in [18], in assay [19] and in [20] was “no binding” each time. The Kd in assay [21] came to 110 µM; in assay [22] it was 100 µM; in assay [23], 110 µM.

B5: Cbx6.VD chromodomain-luciferase fusion (designed binder)
chain: MSYYHHHHHHGSDYKDDDDKSSGENLYFQGSGGSVGDRVFAAESIIKRRIRKGRIEYLVKWEGWAIKYSTWEPEENILDSRLIAAFEQKERERELYGP
notes: as for B1
For B5, the binding result in assay [1], in [24], in [5], in assay [10], in assay [11] and in [12] was “no binding (tested: 0.1 nM)” each time. In assay [13], the binding result was “no binding (tested: 0.1 nM)”.
